According to publication PMC2754851:
Like-named read-outs stand apart in the source and are kept apart here.

How the values were obtained:
Assay in all cases: pull-down
[1] = target: Doc1-4A APC/C (S. cerevisiae) (UniProt P53886)
[2] = target: Cdc27-A2 APC/C (APC/C with Cdc27 L579A) (S. cerevisiae) (UniProt P53886)
[3] = target: Doc1-4A APC/C (S. cerevisiae) (UniProt P53886); remark: listed apart in the source

Doc1-4A APC/C (S. cerevisiae), sequence (P53886 whole entry, looked up): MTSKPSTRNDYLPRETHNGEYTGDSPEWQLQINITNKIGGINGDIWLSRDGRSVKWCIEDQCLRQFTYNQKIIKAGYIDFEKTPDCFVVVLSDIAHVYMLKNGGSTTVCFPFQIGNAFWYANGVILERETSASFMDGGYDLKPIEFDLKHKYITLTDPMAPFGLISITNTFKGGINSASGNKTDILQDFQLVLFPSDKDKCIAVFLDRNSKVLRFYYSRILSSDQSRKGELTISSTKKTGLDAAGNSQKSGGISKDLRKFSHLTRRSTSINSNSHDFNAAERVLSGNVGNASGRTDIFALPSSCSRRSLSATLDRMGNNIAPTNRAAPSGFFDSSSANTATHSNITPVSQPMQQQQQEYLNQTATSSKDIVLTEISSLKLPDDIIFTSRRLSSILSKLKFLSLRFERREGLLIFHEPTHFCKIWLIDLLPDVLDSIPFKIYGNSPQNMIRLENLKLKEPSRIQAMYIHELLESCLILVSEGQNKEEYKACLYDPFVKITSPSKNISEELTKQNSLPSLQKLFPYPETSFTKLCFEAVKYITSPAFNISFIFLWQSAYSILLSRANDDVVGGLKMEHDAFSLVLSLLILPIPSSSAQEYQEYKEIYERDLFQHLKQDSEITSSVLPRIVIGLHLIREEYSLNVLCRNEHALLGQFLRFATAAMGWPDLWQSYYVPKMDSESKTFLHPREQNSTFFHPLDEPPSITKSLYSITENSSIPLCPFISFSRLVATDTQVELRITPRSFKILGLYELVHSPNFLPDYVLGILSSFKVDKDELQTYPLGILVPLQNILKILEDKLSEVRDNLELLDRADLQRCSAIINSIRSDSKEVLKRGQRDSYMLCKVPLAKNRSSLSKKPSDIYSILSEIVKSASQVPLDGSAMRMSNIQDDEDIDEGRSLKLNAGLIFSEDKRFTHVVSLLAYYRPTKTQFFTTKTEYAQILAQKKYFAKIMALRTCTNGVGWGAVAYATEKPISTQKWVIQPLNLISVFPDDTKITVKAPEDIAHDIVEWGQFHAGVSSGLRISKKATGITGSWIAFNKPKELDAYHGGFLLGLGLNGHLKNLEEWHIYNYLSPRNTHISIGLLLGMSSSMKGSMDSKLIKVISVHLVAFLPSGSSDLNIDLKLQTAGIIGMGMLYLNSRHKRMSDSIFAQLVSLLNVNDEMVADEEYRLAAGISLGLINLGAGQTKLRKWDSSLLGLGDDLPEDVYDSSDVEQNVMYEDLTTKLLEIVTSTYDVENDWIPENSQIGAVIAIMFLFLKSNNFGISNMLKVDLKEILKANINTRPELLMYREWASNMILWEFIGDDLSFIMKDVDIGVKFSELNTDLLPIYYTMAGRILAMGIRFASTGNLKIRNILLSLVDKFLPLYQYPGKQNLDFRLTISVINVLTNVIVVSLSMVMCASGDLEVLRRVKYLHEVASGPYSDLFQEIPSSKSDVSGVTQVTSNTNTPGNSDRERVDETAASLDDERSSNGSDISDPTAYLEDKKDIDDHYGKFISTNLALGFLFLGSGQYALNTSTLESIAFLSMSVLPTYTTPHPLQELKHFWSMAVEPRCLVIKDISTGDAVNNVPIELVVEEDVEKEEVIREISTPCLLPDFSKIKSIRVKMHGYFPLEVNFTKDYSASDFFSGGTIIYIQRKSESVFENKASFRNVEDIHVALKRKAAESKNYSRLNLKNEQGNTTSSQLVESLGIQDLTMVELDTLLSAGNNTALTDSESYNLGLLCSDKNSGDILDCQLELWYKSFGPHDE

B1: in vitro translated Cdh1 (natural protein)
chain: MSTNLNPFMNNTPSSSPLKGSESKRVSKRPISSSSSASLLSSPSRRSRPSTVYGDRYIPSRTDIDFNSIVSISSMASVPALNPSSTEDQVEYQKERQAHETYNTLLKNELFGEMLSKDTVGSESSIDRIKNTRPSTRGNVHAENTTRHGYELERVSTPPPEAAGLEEFSPHSTPVTPRRLFTSQQDEITRPSSNSVRGASLLTYQQRKGRRLSAASLLQSQFFDSMSPVRPDSKQLLLSPGKQFRQIAKVPYRVLDAPSLADDFYYSLIDWSSTDVLAVALGKSIFLTDNNTGDVVHLCDTENEYTSLSWIGAGSHLAVGQANGLVEIYDVMKRKCIRTLSGHIDRVACLSWNNHVLTSGSRDHRILHRDVRMPDPFFETIESHTQEVCGLKWNVADNKLASGGNDNVVHVYEGTSKSPILTFDEHKAAVKAMAWSPHKRGVLATGGGTADRRLKIWNVNTSIKMSDIDSGSQICNMVWSKNTNELVTSHGYSKYNLTLWDCNSMDPIAILKGHSFRVLHLTLSNDGTTVVSGAGDETLRYWKLFDKPKAKVQPNSLIFDAFNQIR
modifications: 35S label
With B1 the half-time of dissociation [1] was 20 min, the half-time of dissociation [2] was 10 min and the koff [2] was 0.0011 s⁻¹. The half-time of dissociation [3] was 22 min.
